# From patent US20040176301A1 (CYCLACEL, published 2004)
# Square brackets hold non-standard residues; d marks the D form. Ends that are not written are not given here. Phe(4-F) = N[C@@H](Cc1ccc(F)cc1)C(=O)O; 1Nal = N[C@@H](Cc1cccc2ccccc12)C(=O)O; Cha = N[C@@H](CC1CCCCC1)C(=O)O; Cit = NC(=O)NCCC[C@H](N)C(=O)O; Phg = N[C@H](C(=O)O)c1ccccc1; Tle = CC(C)(C)[C@H](N)C(=O)O; Nle = CCCC[C@H](N)C(=O)O; Nva = CCC[C@H](N)C(=O)O; Abu = CC[C@H](N)C(=O)O; Aib = CC(C)(N)C(=O)O; Sar = CNCC(=O)O
# B1: H-His-Ala-Lys-Arg-Aib-Leu-Ile-Phe-NH2 (peptide)
# peptide: H-HAKR[Aib]LIF-NH2
# SMILES: CC[C@H](C)[C@H](NC(=O)[C@H](CC(C)C)NC(=O)C(C)(C)NC(=O)[C@H](CCCNC(=N)N)NC(=O)[C@H](CCCCN)NC(=O)[C@H](C)NC(=O)[C@@H](N)Cc1c[nH]cn1)C(=O)N[C@@H](Cc1ccccc1)C(N)=O
# B2: H-His-Ala-Lys-Arg-Sar-Leu-Ile-Phe-NH2 (peptide)
# peptide: H-HAKR[Sar]LIF-NH2
# SMILES: CC[C@H](C)[C@H](NC(=O)[C@H](CC(C)C)NC(=O)CN(C)C(=O)[C@H](CCCNC(=N)N)NC(=O)[C@H](CCCCN)NC(=O)[C@H](C)NC(=O)[C@@H](N)Cc1c[nH]cn1)C(=O)N[C@@H](Cc1ccccc1)C(N)=O
# B3: H-His-Ala-Lys-Arg-Arg-1Nap-Ile-Phe-NH2 (peptide)
# peptide: H-HAKRR[1Nal]IF-NH2
# SMILES: CC[C@H](C)[C@H](NC(=O)[C@H](Cc1cccc2ccccc12)NC(=O)[C@H](CCCNC(=N)N)NC(=O)[C@H](CCCNC(=N)N)NC(=O)[C@H](CCCCN)NC(=O)[C@H](C)NC(=O)[C@@H](N)Cc1c[nH]cn1)C(=O)N[C@@H](Cc1ccccc1)C(N)=O
# B4: H-His-Ala-Lys-Arg-Arg-Nle-Ile-Phe-NH2 (peptide)
# peptide: H-HAKRR[Nle]IF-NH2
# SMILES: CCCC[C@H](NC(=O)[C@H](CCCNC(=N)N)NC(=O)[C@H](CCCNC(=N)N)NC(=O)[C@H](CCCCN)NC(=O)[C@H](C)NC(=O)[C@@H](N)Cc1c[nH]cn1)C(=O)N[C@H](C(=O)N[C@@H](Cc1ccccc1)C(N)=O)[C@@H](C)CC
# B5: H-His-Ala-Lys-Arg-Arg-Nva-Ile-Phe-NH2 (peptide)
# peptide: H-HAKRR[Nva]IF-NH2
# SMILES: CCC[C@H](NC(=O)[C@H](CCCNC(=N)N)NC(=O)[C@H](CCCNC(=N)N)NC(=O)[C@H](CCCCN)NC(=O)[C@H](C)NC(=O)[C@@H](N)Cc1c[nH]cn1)C(=O)N[C@H](C(=O)N[C@@H](Cc1ccccc1)C(N)=O)[C@@H](C)CC
# B6: H-His-Ala-Lys-Arg-Arg-Cha-Ile-Phe-NH2 (peptide)
# peptide: H-HAKRR[Cha]IF-NH2
# SMILES: CC[C@H](C)[C@H](NC(=O)[C@H](CC1CCCCC1)NC(=O)[C@H](CCCNC(=N)N)NC(=O)[C@H](CCCNC(=N)N)NC(=O)[C@H](CCCCN)NC(=O)[C@H](C)NC(=O)[C@@H](N)Cc1c[nH]cn1)C(=O)N[C@@H](Cc1ccccc1)C(N)=O
# B7: H-Ala-Ala-Lys-Arg-Cit-Leu-Ile-pFPhe-NH2 (peptide)
# peptide: H-AAKR[Cit]LI[Phe(4-F)]-NH2
# SMILES: CC[C@H](C)[C@H](NC(=O)[C@H](CC(C)C)NC(=O)[C@H](CCCNC(N)=O)NC(=O)[C@H](CCCNC(=N)N)NC(=O)[C@H](CCCCN)NC(=O)[C@H](C)NC(=O)[C@H](C)N)C(=O)N[C@@H](Cc1ccc(F)cc1)C(N)=O
# B8: H-Ala-Ala-Lys-Gln-Arg-Leu-Ile-pFPhe-NH2 (peptide)
# peptide: H-AAKQRLI[Phe(4-F)]-NH2
# SMILES: CC[C@H](C)[C@H](NC(=O)[C@H](CC(C)C)NC(=O)[C@H](CCCNC(=N)N)NC(=O)[C@H](CCC(N)=O)NC(=O)[C@H](CCCCN)NC(=O)[C@H](C)NC(=O)[C@H](C)N)C(=O)N[C@@H](Cc1ccc(F)cc1)C(N)=O
# B9: H-Ala-Ala-Lys-Arg-Arg-Leu-Ile-pFPhe-NH2 (peptide)
# peptide: H-AAKRRLI[Phe(4-F)]-NH2
# SMILES: CC[C@H](C)[C@H](NC(=O)[C@H](CC(C)C)NC(=O)[C@H](CCCNC(=N)N)NC(=O)[C@H](CCCNC(=N)N)NC(=O)[C@H](CCCCN)NC(=O)[C@H](C)NC(=O)[C@H](C)N)C(=O)N[C@@H](Cc1ccc(F)cc1)C(N)=O
# B10: H-Ala-Ala-Abu-Arg-Ser-Leu-Ile-pFPhe-NH2 (peptide)
# peptide: H-AA[Abu]RSLI[Phe(4-F)]-NH2
# SMILES: CC[C@H](NC(=O)[C@H](C)NC(=O)[C@H](C)N)C(=O)N[C@@H](CCCNC(=N)N)C(=O)N[C@@H](CO)C(=O)N[C@@H](CC(C)C)C(=O)N[C@H](C(=O)N[C@@H](Cc1ccc(F)cc1)C(N)=O)[C@@H](C)CC
# B11: H-Ala-Ala-Lys-Arg-Arg-Leu-Ala-pFPhe-NH2 (peptide)
# peptide: H-AAKRRLA[Phe(4-F)]-NH2
# SMILES: CC(C)C[C@H](NC(=O)[C@H](CCCNC(=N)N)NC(=O)[C@H](CCCNC(=N)N)NC(=O)[C@H](CCCCN)NC(=O)[C@H](C)NC(=O)[C@H](C)N)C(=O)N[C@@H](C)C(=O)N[C@@H](Cc1ccc(F)cc1)C(N)=O
# B12: H-Ala-Ala-Abu-Arg-Arg-Leu-Ile-pFPhe-NH2 (peptide)
# peptide: H-AA[Abu]RRLI[Phe(4-F)]-NH2
# SMILES: CC[C@H](NC(=O)[C@H](C)NC(=O)[C@H](C)N)C(=O)N[C@@H](CCCNC(=N)N)C(=O)N[C@@H](CCCNC(=N)N)C(=O)N[C@@H](CC(C)C)C(=O)N[C@H](C(=O)N[C@@H](Cc1ccc(F)cc1)C(N)=O)[C@@H](C)CC
# B13: H-His-Bug-Lys-Arg-Arg-Leu-Ile-Phe-NH2 (peptide)
# peptide: H-H[Tle]KRRLIF-NH2
# SMILES: CC[C@H](C)[C@H](NC(=O)[C@H](CC(C)C)NC(=O)[C@H](CCCNC(=N)N)NC(=O)[C@H](CCCNC(=N)N)NC(=O)[C@H](CCCCN)NC(=O)[C@@H](NC(=O)[C@@H](N)Cc1c[nH]cn1)C(C)(C)C)C(=O)N[C@@H](Cc1ccccc1)C(N)=O
# Molecular target: CDK2/cyclin A complex (UniProt P24941 1-298; P20248 1-432)
# Assay: cell-based or functional assay
row,"Relative activity, CDK2/cyclin A kinase inhibition (pRb substrate)",Binder
1,1.8 relative to HAKRRLIF-NH2,H-AAKRRLIF-NH2 [H-Ala-Ala-Lys-Arg-Arg-Leu-Ile Phe-NH2]
2,2 relative to HAKRRLIF-NH2,XAKRRLIF (Thi (2-thienylalanine) at position 1; C-terminal amide) [H-Thi-Ala-Lys-Arg-Arg-Leu-Ile Phe-NH2]
3,< 0.1 relative to HAKRRLIF-NH2,XAKRRLIF (Pya (3-pyridylalanine) at position 1; C-terminal amide) [H-Pya-Ala-Lys-Arg-Arg-Leu-Ile Phe-NH2]
4,2 relative to HAKRRLIF-NH2,XAKRRLIF (Hse (homoserine) at position 1; C-terminal amide) [H-Hse-Ala-Lys-Arg-Arg-Leu-Ile Phe-NH2]
5,5 relative to HAKRRLIF-NH2,XAKRRLIF (Dab (diaminobutyric acid) at position 1; C-terminal amide) [H-Dab-Ala-Lys-Arg-Arg-Leu-Ile Phe-NH2]
6,3 relative to HAKRRLIF-NH2,H-FAKRRLIF-NH2 [H-Phe-Ala-Lys-Arg-Arg-Leu-Ile Phe-NH2]

# Molecular target: T1, CDK2/cyclin A (UniProt P24941 1-298; P20248 1-432)
# Assay: cell-based or functional assay
row,"Relative activity, Kinase Inhibition (CDK2/cyclin A kinase assay, pRb substrate, [ATP] = 100 µM)",Binder
1,< 0.1 relative to H-His-Ala-Lys-Arg-Arg-Leu-Ile-Phe-NH2 (=1),B1
2,< 0.1 relative to H-His-Ala-Lys-Arg-Arg-Leu-Ile-Phe-NH2 (=1),H-HAKRNLIF-NH2 [H-His-Ala-Lys-Arg-Asn-Leu-Ile-Phe-NH2]
3,< 0.1 relative to H-His-Ala-Lys-Arg-Arg-Leu-Ile-Phe-NH2 (=1),H-HAKRALIF-NH2 [H-His-Ala-Lys-Arg-Ala-Leu-Ile-Phe-NH2]
4,< 0.1 relative to H-His-Ala-Lys-Arg-Arg-Leu-Ile-Phe-NH2 (=1),B2
5,< 0.1 relative to H-His-Ala-Lys-Arg-Arg-Leu-Ile-Phe-NH2 (=1),H-HAKRPLIF-NH2 [H-His-Ala-Lys-Arg-Pro-Leu-Ile-Phe-NH2]
6,0.7 relative to H-His-Ala-Lys-Arg-Arg-Leu-Ile-Phe-NH2 (=1),H-HAKRSLIF-NH2 [H-His-Ala-Lys-Arg-Ser-Leu-Ile-Phe-NH2]

# Molecular target: T1, CDK2/cyclin A
# Assay: cell-based or functional assay
# Remark: another data set of the same source
row,"Relative activity, Kinase Inhibition (CDK2/cyclin A kinase assay, pRb substrate, [ATP] = 100 µM)",Binder
1,< 0.1 relative to H-His-Ala-Lys-Arg-Arg-Leu-Ile-Phe-NH2 (=1),H-HAKRRVIF-NH2 [H-His-Ala-Lys-Arg-Arg-Val-Ile-Phe-NH2]
2,< 0.1 relative to H-His-Ala-Lys-Arg-Arg-Leu-Ile-Phe-NH2 (=1),B3
3,1.5 relative to H-His-Ala-Lys-Arg-Arg-Leu-Ile-Phe-NH2 (=1),H-HAKRRIIF-NH2 [H-His-Ala-Lys-Arg-Arg-Ile-Ile-Phe-NH2]
4,< 0.1 relative to H-His-Ala-Lys-Arg-Arg-Leu-Ile-Phe-NH2 (=1),B4
5,< 0.1 relative to H-His-Ala-Lys-Arg-Arg-Leu-Ile-Phe-NH2 (=1),B5
6,< 0.1 relative to H-His-Ala-Lys-Arg-Arg-Leu-Ile-Phe-NH2 (=1),B6
7,< 0.1 relative to H-His-Ala-Lys-Arg-Arg-Leu-Ile-Phe-NH2 (=1),H-HAKRRFIF-NH2 [H-His-Ala-Lys-Arg-Arg-Phe-Ile-Phe-NH2]

# Molecular target: T1, CDK2/cyclin A
# Assay: cell-based or functional assay
# Remark: another data set of the same source
row,"Relative activity, Kinase Inhibition (CDK2/cyclin A kinase assay, pRb substrate, [ATP] = 100 µM)",Binder
1,10 relative to H-His-Ala-Lys-Arg-Arg-Leu-Ile-Phe-NH2 (=1),B7
2,4 relative to H-His-Ala-Lys-Arg-Arg-Leu-Ile-Phe-NH2 (=1),B8
3,80 relative to H-His-Ala-Lys-Arg-Arg-Leu-Ile-Phe-NH2 (=1),B9
4,14 relative to H-His-Ala-Lys-Arg-Arg-Leu-Ile-Phe-NH2 (=1),B10
5,20 relative to H-His-Ala-Lys-Arg-Arg-Leu-Ile-Phe-NH2 (=1),B11
6,4 relative to H-His-Ala-Lys-Arg-Arg-Leu-Ile-Phe-NH2 (=1),AKRRLIX (pFPhe (p-fluorophenylalanine) at position 7; C-terminal amide (-NH2)) [H-Ala-Lys-Arg-Arg-Leu-Ile-pFPhe-NH2]
7,60 relative to H-His-Ala-Lys-Arg-Arg-Leu-Ile-Phe-NH2 (=1),B12

# Molecular target: T1, CDK2/cyclin A
# Assay: cell-based or functional assay
# Remark: another data set of the same source
row,"Relative activity, Kinase Inhibition (CDK2/cyclin A kinase assay, pRb substrate, [ATP] = 100 µM)",Binder
1,0.5 relative to H-His-Ala-Lys-Arg-Arg-Leu-Ile-Phe-NH2 (=1),H-HIKRRLIF-NH2 [H-His-Ile-Lys-Arg-Arg-Leu-Ile-Phe-NH2]
2,0.5 relative to H-His-Ala-Lys-Arg-Arg-Leu-Ile-Phe-NH2 (=1),H-HFKRRLIF-NH2 [H-His-Phe-Lys-Arg-Arg-Leu-Ile-Phe-NH2]
3,2 relative to H-His-Ala-Lys-Arg-Arg-Leu-Ile-Phe-NH2 (=1),H-HVKRRLIF-NH2 [H-His-Val-Lys-Arg-Arg-Leu-Ile-Phe-NH2]
4,< 0.1 relative to H-His-Ala-Lys-Arg-Arg-Leu-Ile-Phe-NH2 (=1),"H-H[Phg]KRRLIF-NH2 (also: Phg racemic, mixture of diastereomers) [H-His-Phg-Lys-Arg-Arg-Leu-Ile-Phe-NH2]"
5,0.2 relative to H-His-Ala-Lys-Arg-Arg-Leu-Ile-Phe-NH2 (=1),B13

# Molecular target: CDK1/Cyclin B complex (UniProt P06493 1-297; P14635 1-433)
# Assay: cell-based or functional assay
# CDK1/Cyclin B complex, sequence (P06493 other isoform, or with tags, fused parts or gaps, chain 1 of 2): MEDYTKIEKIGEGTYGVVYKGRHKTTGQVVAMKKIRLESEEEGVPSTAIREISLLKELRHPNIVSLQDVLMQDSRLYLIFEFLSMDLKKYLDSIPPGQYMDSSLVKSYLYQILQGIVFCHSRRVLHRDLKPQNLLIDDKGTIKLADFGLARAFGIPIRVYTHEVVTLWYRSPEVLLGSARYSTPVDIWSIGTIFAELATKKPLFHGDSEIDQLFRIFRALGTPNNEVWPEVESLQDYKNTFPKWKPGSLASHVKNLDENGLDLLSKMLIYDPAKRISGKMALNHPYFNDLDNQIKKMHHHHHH
# CDK1/Cyclin B complex, sequence (P14635 other isoform, or with tags, fused parts or gaps, chain 2 of 2): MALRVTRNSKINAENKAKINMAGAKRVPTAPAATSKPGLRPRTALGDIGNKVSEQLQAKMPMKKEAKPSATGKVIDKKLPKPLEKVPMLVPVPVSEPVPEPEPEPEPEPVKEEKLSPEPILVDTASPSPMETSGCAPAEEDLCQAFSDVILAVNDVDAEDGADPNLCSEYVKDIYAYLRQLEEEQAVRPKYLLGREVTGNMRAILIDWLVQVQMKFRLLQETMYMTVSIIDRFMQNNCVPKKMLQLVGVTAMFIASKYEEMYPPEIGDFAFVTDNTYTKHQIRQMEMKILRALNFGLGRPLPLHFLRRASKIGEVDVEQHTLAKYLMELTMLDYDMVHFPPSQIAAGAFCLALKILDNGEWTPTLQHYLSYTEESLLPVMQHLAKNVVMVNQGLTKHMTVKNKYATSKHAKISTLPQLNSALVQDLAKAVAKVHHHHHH
"IC50, CDK1-Cyclin B phosphorylation of GST-Rb [µM]","IC50, CDK1-Cyclin B phosphorylation of Histone 1 [µM]",Binder
> 200,200,DFYHAKRRLIFS-NH2 [p21 (149-160)S153A DFYHAKRRLIFS-NH2]
